This passage reports protease stability score results from the NTF2 design screens of Basanta et al. (2020).

This data set can be described thus: protease stability score; higher = more stable; yeast display proteolysis, trypsin and chymotrypsin.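 Note: relative to predicted unfolded state with 0 unfolded-like and 1 meaning tenfold more protease.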
As to “DEERKIAEKFAELYQHWEHTGNEDEMRSFFDPNYRLFVGEKEFVGRKTRSRWHREYIEKLGVDHVEIQDYRVQGNFVESDLVLRFNGREVKTEIRINVIDGRIKEVHIITH”, the protease stability score turned out to be 0.198.

“DEERKIVEKWANEFLQAQITGDEDWFREYADPTTRYNLHIGDYDLHLHGRELVLTFLHEILRKFKNIKIEIKRRNIQGEKTDIDGVENYNGVEHRVRIHLVVINGQLKSYTIKEH” had a protease stability score of 0.604.

“DEERKIVLESVRLWLDEWETGDESALEKLMDPNVRVIIGDKTVHGREQMIKFLREWLTRYDHLEIKLRDIKVIGDKIHVESEFRYHIGDKELSHRTNVVLKIVDGKLKSVRVDFE” had a protease stability score of 1.93.

Sequence “DEERKLATELFKWLIDLYLTGDEETFEKLADPHYLSDVNGRNIHGMELISHIWREEIEKYGWEIHIKIRHIELQGDKSKSETEIHNNYDGRRIVFETRIIVRIVNGRIKSIEVRFR” came in with a protease stability score of 1.28.

“DEERKMYTYAHKLLKTSHDTGNEDDLTNLVDPNVRIDINGRDIHGWDFWHEMMTKLGVNVFETKHVELQGNKLHIDGTLHVDGRTHRVTINNIKIDGRWIIKHVHIE” displayed a protease stability score of -0.3.

Take “DEERKRSEELMKLEIHVFETGDWEWYREMADPNTRMHIDGKDFHGREEIYKFLHEHHLRFKNIKIHFEHIELQGEYVHNDVIIHVNGVDLIAHIIIVVVNGRVTHSEFQLE”: the protease stability score was 1.17.

“DEERKSTELALKHWHESMRTGDEHDTRRMMDPNVRVEIGDKTYVGREDVLEFMHRLGANHVEHFEIEDWKIVNGKVVMHGHSRVRIGDFEANTEVIIFSQKFNGRWFLESVIIV” returned a protease stability score of 0.656.

Turning to “DEERKWTKEALDKLLRVIATGDEDFINQNADPRVRLEINGVEIHGRELWHKILKDHSERMGVKHTHLESHDEFNGVITIHMRLFVGDKETRIEIINLKVDGKWIIKSLRIE”, the protease stability score is 1.22.

In the case of “DEERQESEEALRHSMELWATGDFESLSRNVDPNVRVEIGDKTFHGWEIAHELFHKIKNLTVHLEDHEIQGEKVTIHGVLNFNGKREHVRLYSKKVNGRWILEKVQVG”, the protease stability score amounted to 2.17.

As for “DEERQRAHKWMHDWIKAYLTGDEEHQNQMLDPNMRIEYGDKTHHGRDILIEIFREELRQVDHIEIRIRHIDNFEGRVRTDGELHVKINGRREHYDIILEYDVVNGKLKIERWDIR”, the protease stability score worked out at 1.45.

In turn, “DEERQTLEEWARELLQIHKTGDEERHKEYADPDDLLRIGDKDFHGMEHVLHALVQHWEKMGVKHLEIKRLRVINGVMHVEGVLHVGDKTHDVKLHLFIFNGRIERVEIRIE” gave a protease stability score of 1.33.

For “DEERRHFEHFFHLWEQIMVTGDEDMARMLADPNVRIQVGDKKYHGREHFAELIKHLRVERIRIHTFRLYDGRIELIIHVHGNVNGQRDEFETRSHTIKVDGVWVIHSFHID”, the protease stability score was 1.6.

The sequence “DEERRRAKKFLEQFVRNVETGDEELHYHLADPHMKVKIGDKEFHGMEHWIEWFHRFGFDHMEIELKDIRVQGDKAHIDGRLHVDYNGREHSTNVELVVRKVNGRWRLHELRVE” had a protease stability score of 1.28.

The sequence “DEERRRDEEDWRFLEHVWETGDFDALVNMIDPNVRIEFEGRTHHGREDASHLIKRLGVKYFEVKSQNIQGDYIIDDVEFRVGEYRTRVRIIIHKIDGKWYIHSLHIL” showed a protease stability score of 0.913.

Regarding “DEERRSSEEYVRTLHDIIRTGDEDRLVRLADPHARLEVGEFHFHGREELEHFWRKIIEHFGHDKIEVRIESVEVQGEKIVNVGKLSVNGQEREIIFIALKYNGRWITRSIHLH”, the protease stability score was 1.59.

As for “DEERTLVEELIQIFVEALETGDFETLSKMFDPHALFLQGDKRFVGRKDIEKWIHDLVRRLGVNHIEIDKITVQGEKAHVDTRVHIGDKTSTIHILIVKVNGRWFVEEIRYH”, the protease stability score came to 1.17.

“DEERVKQVQKKAFEAVMKGNDDEMRKIGKPNVRYEYIDEKNEGQEAVDVVIQLVKKVGAEAKVRRTEVKGDTVRAIFVYNDGDQTVQTKVEVKYEGDKVKEARVELTDEVQKVLHKG” registered a protease stability score of -0.027.

For the sequence “DEESEDAKRVLDEWLHMLDTGNEERLHELADPNMRFDVNGKEIHGMEIWQKEMKRSLTHHGAEMHHRIRTIEVQGNKILVDGELIINFNGRTYLHKIHIIFQKFDGRWHVESLTIK”, the protease stability score is -0.052.

“DEESEKVEHFLEELFRAMETGDEDQFRKLMDPNVRASYGDKEVHGRNDILHWIREYRERVKNLKLEVHRVRVRIYNGRVEIEMDTILRINGKEHKVTLTFDVTKVNGRWFIEHVEVEVR”: the protease stability score turned out to be 1.37.

The sequence “DEESKESHDIMRILLHIFRTGDEHKLKEMADPNTLFHIGDKEFHGREEFVHFLREVFEKIKNIKHRITDIKDVGDKIHVEVEEKVNGRHRHVELIWLVVDGKIQWYEIRIR” displayed a protease stability score of 1.23.

Turning to “DEESKFLTEMLEDILRALITGDEEHLQTLMDPDVRVEVGDKLFIGREQASEFWRREFEEIRIDDFRIHHLEVIDGRVHVHGRVDGTIGDKHHRREIIIHDLIVNGRIKKIRIEIH”, the protease stability score came to 1.31.

The sequence “DEESRLIEEFIKKVTHALRTGDEHRMHHLLDPHVRFYIGDKFLIGRENMAHLIRWLIEHLGVDHTHLESSSIINGKSFLDTRMHVDGQEIEVRFIIVLFDGVVNRVHYQIE” showed a protease stability score of 1.1.

Turning to “DEETEDLRRWFEALLRSTHTGDFHTLNRLIDPNVRMDVGDKRHHGREFFEHLLRRADHIKIELEDYEFQGNKVIFHGKLIIHYNGQDLEYKSSMDAEKVDGRWIVRRVYLE”, the protease stability score amounted to 1.58.

As to “DEETEEERKITELSLKAYKTGDEDTLSSLIDPHARFIYNGRHHHGRETASHILRRETERLGVKHIHLKDTEIDDVNGVVDMRIHMMVHYGNKTTELIIILRITKFNGRWIIETIEVRVR”, the protease stability score is 0.691.

The sequence “DEETEEIELAFHFFQHAYETGNEEVLMELADPDVKIDVNGRKLHGRERVWKFLIHHWHHLGIKHIHMDRIEIYGNKVVVDGEIKYGDKSDETIMYVVKVDGRWKLEMIEVK” returned a protease stability score of 1.47.

In turn, “DEETEIEKHAMEHIFRANETGNWREILEMIDPNVKIEYGDKERHGMTIYLEILELWGITKIHLDIQSIRVINGRMDIHGRIVFNGKTHTVDLHLLKVDGRWILTEIRVR” had a protease stability score of 1.3.

Take “DEETEILKKVVKEMRKIMHTGDEHEIHRYLDPNARLDVDGREVHGREALLEFLRKFKGMTVHIDDVEDIGDKIFIDHELRFDGVTRKSEIISNKINGRWHVESVHIR”: the protease stability score came out at 0.357.

As to “DEETEISRRALKIFLDTIHTGDPRELKENLDPSVRIIINGVHYHGRESFEHVLERVEKSAGVDRVHVELRDFRIYGDKVEVEVTNHFNGRTEIDHFILRKVNGRWYIHEVEFE”, the protease stability score is 2.18.

On to “DEETEIVERYERILVKALTTGDWRRIERLMDPNVKSVVNGREYHGMERYLELYRRIRSEIRINDLRIHKVTEVGNKIEAITVWHVEVDGRIEDLETRVFLRKIDGRWILEREEVA”, for which the protease stability score came out at 0.827.

In turn, “DEETEKDKFLSEVFRHSLMTGDWESELKYADPHARTVVNGRTIHGMRESWEHLKELLERLGAKYIKIRDMDSHIQGDKVLININGELHVGDKTIETRIHLIVRKVNGQWHIEELRFDFK” showed a protease stability score of 0.993.

“DEETELDERVIKLLIEALKTGDEHLKERMMDPRVRFLIDGVDLIGREWAFHIARHWRIHIHHIEHKSISRQGDYLRVNGKEDGVEEFDGRRVEKEVSSHRLILKIDGRWVLTHVELR” yielded a protease stability score of 1.28.

The sequence “DEETELTERAIEESKHNMETGDEDRLIELIDPNVKVEIGDKTFHGWEELMRWWHELGIKHVHLEFHDVKHFNGRIEVDGRLHIDVNGRTILLRVELYFQKINGQWFKESIHIK” had a protease stability score of 1.67.

Sequence “DEETEWLERLVRVILHALDTGDEDEMNQNADPHTRVRVGDKEYHGRELFLDVFRERVHRLGIDHSNLREFDIQGDFFHLDTRLQVGDKFLEVNLIFHVINGRITIVRIDYR” registered a protease stability score of 1.15.

“DEETKELEEIMKFYISAFRTGDWRLIEELADPNVRLNVDGREFHGREQFLKHFREELEHLGIDHVHVDHIDIQGEKLIIRLTIHVDGREIHNILILIIVNGRLHEVKWIRV” had a protease stability score of 1.58.

For the sequence “DEETKETIELMEKFRQDEETGDWRSLHRMADPHTKLVVDGREYHGMEHATTYLVEFIEHFGVKHFHIEDSHVVDGRIVLHTRVEVGDKSREIRIVALKINGVWLMQSIEIG”, the protease stability score is 0.102.

The sequence “DEETKFLLDIFRLVLELFMTGDEDTFSRLFDPNVRNEVNGVEAIGWHQVRELIKEILKEIRIEHIHIHDVRAVGDKVHADTRTDGIINGKRQRRETHVHLETVNGRLKSIWLQIE” returned a protease stability score of 1.13.

Take “DEETKIIEHILEHWLRLIQTGDFHELFRLVDPNVRIDINGVEYHGREEMIKFWKEEVDKLGVDRIHTDLNRNEYQGDKIILHQEVRINGRHIDIHVHAEKVDGVWILRILKRD”: the protease stability score was found to be 1.57.

In the case of “DEETKKLRKFMEQFIEALRTGDEEILEHLIDPNVRNIVGDKQEHGRELLLTWLVKYKGVRWMIDHITIINGVIEIHGTLQVGDKEISIHIHVLVINGKVKSVEIREN”, the protease stability score was 1.47.

“DEETKLNHLAIRLWLQSVMTGNEELQTKLIDPHVRNHIDGREYHGREVFRENLRDLWEKYGVKHVELTHEHSQGEKVHLRFKVDVNGRELDHKIIAHKIDGRWLDHSIHFH” displayed a protease stability score of 0.611.

Take “DEETKRAEELMELWLHLLRTGDEELLSELMDPHVRLDINGVELHGREALLQWHHEHRRRIDHREIRVESRRIQGEKVEQHEDIIIHVNGVEFRHREFYEVVIIDGRFKELHIEHE”: the protease stability score worked out at 0.546.

As to “DEETNLSKLVMEISLELLETGDEEHIHRFVDPHARTILFIDGREEQVHGREQASKWIMWTVKFLGVDHIEVEDTKIVNGVAHLNIRMEVGDKRLTSHFTSEKVNGKWLIKDIRIRID”, the protease stability score was 1.94.

“DEETQNVRTILEEFVHDFETGDERLMHRYLDPNVRIDWNGRDYHGRETMFQMIRELSDKIKNIRIRIEHIDIINGVIIIHGDLHYNGKDVKTTLYFLKVNGRWLITRLEYK” gave a protease stability score of 1.39.

In turn, “DEETRATKRFLDEVLEARATGDWRTLTRNMDPHYRLEIGEKEVHGMEEVSHMVTEEMVRLGIKHSDLKIKDSRFYNGVLHLDGRLILEVNGVRLESDVTLVELKVNGRWQIRFERWE” returned a protease stability score of 1.08.

“DEETRDFDVAFMYFILFEKTGDERELLELLDPDARMVVGDKRRVGRESVLHFMREHLRTLGFKHVEDIELHDFKVYDGRIELDIRVRGRVNGKTHTLTYLMIAHKVDGRWFIHSLEVR” came in with a protease stability score of 2.14.

“DEETRDIIHILKLLWDAIRTGDEEAIRRLLDPDMRIQVGDKEIHGREEFLKEISHWRYDLESFHIKHVDVINGVAIIHLHIVGRFHYDGRTYHDSYEEDVFIFKVNGRWHFHQIKYR” showed a protease stability score of 1.84.

“DEETRDLHHALRIVLHILRTGDFSHLFEYADPHVKIDINGKEVHGMEQMHHEIERLYFELGVDNVTVQHKRIIVYDGRVLVHMISHIGDKWRDIIIIFLKVNGRWRLHSIEVK”: the protease stability score came to 1.72.

For “DEETREAKEAFDIIIKHIETGDEDLLSEMLDPNVRINQGEFRIHGREAVEEWLNYMLHHMRVHVRSEEVRVVGDKVESDFRVQINQGDKIYHHDTRLFLFKIDGRWFIESMEFH”, the protease stability score came to 1.36.
